Experimental data taken from patent US20220378833A1 (Novartis, published 2022).

Key:
[1] = molecular target: T1, His-Avidin-FKBP (wild-type FKBP) (biotinylated (residue not stated; construct carries an avi-tag)); experiment: AlphaLISA direct assay: 30 nM Flag-FRB and 30 nM biotinylated FKBP; the titrated species is everolimus (EC50 is an everolimus concentration)
T1 construct: also called biotinylated wild-type FKBP; biotinylated FKBP
Protocol: (§1) FRB mutations were also ranked in an alternative assay format. […] All dilutions were made in 1 × AlphaLISA Immunoassay buffer (PerkinElmer). Anti-Flag acceptor beads (PerkinElmer) were added at 10 ug/ml final concentration and incubated for one hour at room temperature. Streptavidin donor beads (PerkinElmer), were then added at a final concentration of 40 ug/ml and the plate was protected from light and incubated for 30 minutes at room temperature. The plate was then read on the PerkinElmer EnVision Multiplate reader equipped with the Alpha Module using excitation of 680 nm and a 570 nm Emission filter.

[2] = molecular target: T1, His-Avidin-FKBP (wild-type FKBP); experiment: AlphaLISA direct assay, Flag-FRB and biotinylated FKBP, everolimus titrated
Protocol: as §1

T1 sequence (chain, as listed by the source limits assumed): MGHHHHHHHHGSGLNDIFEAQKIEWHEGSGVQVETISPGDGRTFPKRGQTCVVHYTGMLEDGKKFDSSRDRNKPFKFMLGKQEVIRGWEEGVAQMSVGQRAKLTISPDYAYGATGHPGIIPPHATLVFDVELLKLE

EC50 [1] | fold improvement over wild type FRB [2] | Binder
3.9 nM |  | His-FLAG-FRB (wild-type FRB) (other, also called wild type Flag-FRB) MGHHHHHHHHGSDYKDDDDKGSASRILWHEMWHEGLEEASRLYFGERNVKGMFEVLEPLHAMMERGPQTLKETSFNQAYGRDLMEAQEWCRKYMKSGNVKDLTQAWDLYYHVFRRISKTS
2.46 nM |  | His-FLAG-FRB E2032I (other, also called E20321 (OCR form)) MGHHHHHHHHGSDYKDDDDKGSASRILWHEMWHEGLIEASRLYFGERNVKGMFEVLEPLHAMMERGPQTLKETSFNQAYGRDLMEAQEWCRKYMKSGNVKDLTQAWDLYYHVFRRISKTS
2.15 nM |  | His-FLAG-FRB E2032L (other) MGHHHHHHHHGSDYKDDDDKGSASRILWHEMWHEGLLEASRLYFGERNVKGMFEVLEPLHAMMERGPQTLKETSFNQAYGRDLMEAQEWCRKYMKSGNVKDLTQAWDLYYHVFRRISKTS
1.44 nM | 3 fold | His-FLAG-FRB T2098L (other) MGHHHHHHHHGSDYKDDDDKGSASRILWHEMWHEGLEEASRLYFGERNVKGMFEVLEPLHAMMERGPQTLKETSFNQAYGRDLMEAQEWCRKYMKSGNVKDLLQAWDLYYHVFRRISKTS
